Data: paper PMC2951370, “Concerted Action of Two Formins in Gliding Motility and Host Cell Invasion by Toxoplasma gondii” (PLoS Pathogens, 2010)

B1: His-F2 (FH2 domain of TgFRM2) (domain or fragment, Toxoplasma gondii, UniProt D0V3Y1 3317-4043, looked up)
chain: TGSYPGASDKSQQTFSAGAPSSGTNARTESTPAGAGETGASGEAKAPAAPKKKAMPPPPPPGKTPGDASKAPGGPPGKGKAPPLPKGKKAPQLGKAPKAGGPPKKADAVDPMTLPLRRKIHWKTLGKEQIEGTVFKELEGDPAIPDMFDPEAISRLFSATLTVKSDEAAVKAAPKKAEEKKHTILDNKRAQNVAIVLARLPLSLDAIAQKMLHLDTEGLTVDILQKVEQVAPTPEELVKFREYEELKKTENTGDLRDVEKKMTALIPVTRLSSRVRVMQTALQWEKVVEEIEKQLALLCKAADEAHNSRKFRSLLQAVLQWGNYVNHGVKKAPKGQEVSSESEARKAETTSPTEGDRRENRQTLQQLPPILLVKELPTKGFKLASLEKLMEFRTTVDKSICSLHFIISNLIVSLPELDILDLASDMPSLEAAARLSDESIDAPVSYLRNEAAFLLSQIHAIKQVLAAKDATATDPSGAPRPSGSKPQTDEALHAELTRLQKLHGEMVLTLERLRESYLNCKAVIGEVGRFYGEDGPKKPSAGKHKLKGQAVSVDAGGSATAGGVIAEWEFGLLDQSPFELLFSILSTCRQGLRDVQANPRKYAILLVGRFASEEEKWKLLKFHIDNSLANRKRVTGCRGSDAEQVAGRPQDADKAGSSVVSSPRTTPRGSIASRGGKKLIVGRHGPEAGGTPQIPRGPPKSDNGSFTETQRLGRGLSEGSEDALSSP
notes: also called F2-WT; His-GST-F2; source: E. coli, purified (Ni-NTA under native conditions)
B2: His-F1L (FH2 domain of TgFRM1 with an N-terminal 48 amino acid proline-rich extension) (domain or fragment)
chain: KKPEAPKKEEAKPKPEAKKEAPKKGPPGGKGGKGPPGKGPPKGKGKGPKKKGEGGLKVGKKDEGKTKRFFWDPIFEDEIPGTIFMKKPNMVLKLQDVEETFAKVVAKKKTESKKPKIIQLLPDSKRAYNMSIALSKFNNYSYQQLREAIIDLDPKILTIEATETLLNFVPTGEENQVVKEYINSGGDLKLVDKPEQFVAAMLGVPLMKQRLEAHAFALNFREAYSDAYTPLENMADACDAIDDSQNLKIVLFAILELGNALNEGDPQRGGAAGFKPTTLAKLQEIRTTTKPVRTMLQYICDIIWEQQPTALNIYEDLKICDKAQRVDMQGIEGRISNLKAGLTKVKNTLEAAKKGNESTGVMGDRDPLRNIMDEFLIEAEPKIKQLDDFLVQVQNQFLQTCHYSGYPDKDVKKIKPDELFKQVAGFARQVDAIRKQKQEIADRELKRKEAEAKRAGKGLKSTAVKKVGMK
notes: source: E. coli, purified (Ni-NTA under native conditions)

Columns and labels:
[1] = target: DD-myc-F1-IR/AA (Toxoplasma gondii); experiment: co-IP; two sequential anti-myc immunoprecipitations (48 hrs Shld-1); IPs and flow throughs blotted, bands quantified with ImageJ and normalised to the input
[2] = target: DD-myc-F2-R/A (Toxoplasma gondii); experiment: as above
[3] = target: the molecule itself; experiment: SEC; purified FH2 domains on Superose 6 10/300 GL, 0.4 ml/min, PBS-NaCl 0.15 M buffer, to determine their oligomeric state

Molecule	stoichiometry N [3]	other results
Toxoplasma gondii Formin 1 (TgFRM1), endogenous (natural protein)		percent of the input formin left in the second flow through after two anti-myc IPs (not co-precipitated) [1]: 30%
Toxoplasma gondii Formin 2 (TgFRM2), endogenous (natural protein)		percent of the input formin left in the second flow through after two anti-myc IPs (not co-precipitated) [2]: 17%
B1	2	
B2	2	
